From patent publication US20220403048A1 (CANCER RESEARCH TECHNOLOGY, published 2022)
Where a chain is given by its changes, count along the chain named.

T1: biotinylated recombinant human trimeric ARG2 enzyme (Avi-huARG2-His10) (human, UniProt P78540 23-354, biotinylated)
T1 construct: also called avi-Arg2-His10; bio-ARG2
T1 chain: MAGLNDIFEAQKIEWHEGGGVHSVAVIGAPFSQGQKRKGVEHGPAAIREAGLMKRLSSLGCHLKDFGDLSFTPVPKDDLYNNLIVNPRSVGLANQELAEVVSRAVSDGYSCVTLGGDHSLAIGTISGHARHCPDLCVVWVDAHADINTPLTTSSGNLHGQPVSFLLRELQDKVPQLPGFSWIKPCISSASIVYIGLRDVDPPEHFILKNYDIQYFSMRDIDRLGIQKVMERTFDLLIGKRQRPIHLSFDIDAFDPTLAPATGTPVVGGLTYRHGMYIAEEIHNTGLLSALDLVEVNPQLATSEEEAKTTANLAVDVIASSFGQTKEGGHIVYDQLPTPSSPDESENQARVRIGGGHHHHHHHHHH

T2: biotinylated recombinant human trimeric ARG1 enzyme (Avi-huARG1-His10) (human, UniProt P05089 1-322, biotinylated in HTRF and streptavidin BLI assays)
T2 construct: also called Human ARG1; recombinant ARG1
T2 sequence: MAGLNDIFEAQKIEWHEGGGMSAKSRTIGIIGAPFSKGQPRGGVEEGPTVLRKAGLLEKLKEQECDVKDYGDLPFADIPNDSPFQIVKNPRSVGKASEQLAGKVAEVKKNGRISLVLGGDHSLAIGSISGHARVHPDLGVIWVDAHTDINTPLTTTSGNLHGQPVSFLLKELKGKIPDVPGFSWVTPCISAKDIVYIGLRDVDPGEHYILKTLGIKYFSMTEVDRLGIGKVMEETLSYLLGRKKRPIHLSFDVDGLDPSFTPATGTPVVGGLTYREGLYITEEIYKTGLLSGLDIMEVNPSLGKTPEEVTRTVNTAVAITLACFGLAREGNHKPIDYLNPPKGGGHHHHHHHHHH

T3: biotinylated recombinant cynomolgus monkey trimeric ARG2 enzyme (Avi-cynoARG2-His10) (cynomolgus monkey, UniProt P78540 23-354 (human entry), biotinylated)
T3 construct: also called cynomolgus ARG2
T3 chain: T1 chain with A189P, R231Q, H273E, K325R, D333G

B1: C0021155 Fab (Fab, V domains shown)
VH: EVQLLESGGGLVQPGGSLRLSCEASGFTFRYDYHVWVRQAPGKGLEWVSAISGSGGSTYYADPVKGRFTISRDNSKNTLYLQMNSLRAEDTAVYYCARLRADLGLYMDLWGRGTLVTVSS
VL: RSVLTQPPSVSAAPGQKVTISCSGSSSNIGNHYVSWYQQLPGTAPKLLIYDTTVLSSGIPDRFSGSKSGTSATLGITGLQTGDEADYYCGTWDELTSNLVFGGGTRLTVL
notes: Human Fab
B2: C0021181 Fab (Fab, V domains shown)
VH: B1 VH with Q13R, E23A, G26E, P63S, G66S
VL: B1 VL with R1Q, T19A, I20V, N31S, T52N, T53S, V54E, L55R, S56T
notes: Human Fab
B3: C0021144 Fab (Fab, V domains shown)
VH: B1 VH with E23A, P63S
VL: B1 VL with R1Q, I20V, Y33H, I59V, R106K
notes: Human Fab
B4: C0021158 Fab (Fab, V domains shown)
VH: EVQLLESGGGLVQPGGSLRLSCAASGFTFRYEVAAWVRQAPGKGLEWVSAISGPIPKGYYADSVKGRFTISRDNSKNTLYLQMNSLRAEDTAVYYCARLRADLGLYMDLWGRGTLVTVSS
VL: B1 VL with R1Q, T52N, T53S, V54E, L55R, S56T, S57A, I59V, R106K
notes: Human Fab
B5: C0021177 Fab (Fab, V domains shown)
VH: B4 VH with I55A
VL: B1 VL with R1Q, V3E, S9T, V10A, R106K
notes: Human Fab
B6: C0021061 Fab (Fab, V domains shown)
VH: EVQLLESGGGLVQPGGSLRLSCAASGFTFSSYAMSWVRQAPGKGLEWVSAKPTDAGSTYYADSVKGRFTISRDNSKNTLYLQMNSLRAEDTAVYYCARLRADLGLYMDLWGRGTLVTVSS
VL: QSVLTQPPSVSAAPGQKVTISCSGSSSNIGNHYVSWYQQLPGTAPKLLIYNTVYPKSGIPDRFSGSKSGTSATLGITGLQTGDEADYYCGTWDSSLSALVFGGGTKLTVL
notes: Human Fab
B7: C0021128 Fab (Fab, V domains shown)
VH: B4 VH with R30Q
VL: B6 VL with N51D, T52N, V53A, Y54I, P55E, K56S, E84G, S95N
notes: Human Fab
B8: C0021139 Fab (Fab, V domains shown)
VH: B1 VH with E23A, R30Q, H34Q, P63S
VL: B1 VL with R1Q, T52N, T53S, V54E, L55R, S56T, R106K
notes: Human Fab; also called LO C0021139 Fab
B9: C0021022 Fab (Fab, V domains shown)
VH: EVQLLESGGGLVQPGGSLRLSCAASGFTFSSYAMSWVRQAPGKGPEWVSAISGFSPYYADSVKGRFTISRDNSKNTLYLQMNSLRAEDTAVYYCARLRADLGLYMDLWGRGTLVTVSS
VL: B6 VL with N51D, T52N, V53S, Y54E, P55R, K56P
notes: Human Fab
B10: C0021092 Fab (Fab, V domains shown)
VH: B6 VH with S31R, K51H, P52T, T53H, D54S, A55P
VL: B6 VL with T52S, Y54A, P55R, K56P
notes: Human Fab
B11: C0021065 Fab (Fab, V domains shown)
VH: B9 VH with K74R
VL: B6 VL with N51D, V53D, Y54H, P55M, K56A
notes: Human Fab
B12: C0021133 Fab (Fab, V domains shown)
VH: B1 VH with E23A, Y33H, P63S
VL: B1 VL with R1Q, I20V, R106K
notes: Human Fab

Biological target: T1, biotinylated recombinant human trimeric …
Test: BLI (OctetRED) extended assay, bio-ARG2 on streptavidin, Fab as analyte, 1:1 fit
Description: (§1) The affinities of the second-generation antibodies to human ARG2 were measured on the OctetRED system. A screening assay which stably captures His-tagged ARG2 as the ligand on an anti-His surface was utilised to screen the second-generation candidates as Fabs at an analyte range of 1.8 to 120 nM, with an association time of 5 minutes and a dissociation time of 10 minutes. Sensors were regenerated using 10 mM glycine pH 1.5 after each cycle. Based on this assay, six candidates with estimated affinities in the sub-nanomolar range were identified, and they were further profiled using an extended assay which is more suitable for antibodies of high affinities. In the extended assay, the association and dissociation times were extended to 10 and 40 minutes respectively, using a lower Fab analyte titration range of 0.47 to 30 nM, on a streptavidin surface which captures bio-ARG2 as the ligand. The sensorgrams were reference subtracted and fitted to the 1:1 binding model to estimate their binding affinities using the Octet analysis software.

Point of comparison: B1, Kd 0.358 nM. Against it:
- B2 — within 1.5-fold, 0.288 nM
- B3 — within 1.5-fold, 0.338 nM
- B4 — 2.1-fold lower, 0.173 nM
- B5 — 2.1-fold lower, 0.173 nM

Point of comparison: B5, koff 3.51e-05 s⁻¹. Against it:
- B1 — 1.6-fold higher, 5.67e-05 s⁻¹
- B2 — within 1.5-fold, 4.17e-05 s⁻¹
- B3 — 1.9-fold higher, 6.59e-05 s⁻¹
- B4 — within 1.5-fold, 4.54e-05 s⁻¹

Point of comparison: B1, kon 159000 M⁻¹ s⁻¹. Against it:
- B2 — within 1.5-fold, 145000 M⁻¹ s⁻¹
- B3 — within 1.5-fold, 195000 M⁻¹ s⁻¹
- B4 — 1.6-fold higher, 262000 M⁻¹ s⁻¹
- B5 — within 1.5-fold, 202000 M⁻¹ s⁻¹

Biological target: T2, biotinylated recombinant human trimeric …
Test: BLI (OctetRED), His-tagged ligand on anti-His surface

B1: no binding (tested: up to 120 nM Fab).
B2: no binding (tested: up to 120 nM Fab).
B3: no binding (tested: up to 120 nM Fab).
B4: no binding (tested: up to 120 nM Fab).
B5: no binding (tested: up to 120 nM Fab).

Biological target: T3, biotinylated recombinant cynomolgus …
Test: BLI (OctetRED) extended assay, biotinylated cyno ARG2 on streptavidin, Fab as analyte, 1:1 fit
Description: as §1
The affinities of some of these antibodies to cynomolgus ARG2 were determined using the same assay, and the derived kinetic parameters are shown in Table 21.

Point of comparison: B2, Kd 0.173 nM. Against it:
- B4 — 1.6-fold lower, 0.108 nM
- B5 — 2.3-fold lower, 0.0754 nM

Point of comparison: B2, koff 4.43e-05 s⁻¹. Against it:
- B4 — within 1.5-fold, 4.64e-05 s⁻¹
- B5 — within 1.5-fold, 3.12e-05 s⁻¹

Point of comparison: B4, kon 429000 M⁻¹ s⁻¹. Against it:
- B2 — 1.7-fold lower, 257000 M⁻¹ s⁻¹
- B5 — within 1.5-fold, 414000 M⁻¹ s⁻¹

Biological target: T2, biotinylated recombinant human trimeric …
Test: BLI (OctetRED), His-tagged ligand on anti-His surface
Remark: another data set of the same source
Description: The binding of affinity-matured antibodies to human ARG1 was also tested on the OctetRED system using a screening assay which stably captures […] as the ligand on an anti-His surface. The Fabs were typically tested in an analyte range of 1.8 to 120 nM, with an association time of 5 minutes and a dissociation time of 10 minutes. Sensors were regenerated using 10 mM glycine pH 1.5 after each cycle.

B6: no binding (tested: 1.8 to 120 nM Fab).
B7: no binding (tested: 1.8 to 120 nM Fab).
B8: no binding (tested: 1.8 to 120 nM Fab).
B9: no binding (tested: 1.8 to 120 nM Fab).
B10: no binding (tested: 1.8 to 120 nM Fab).
B11: no binding (tested: 1.8 to 120 nM Fab).
B12: no binding (tested: 1.8 to 120 nM Fab).

Biological target: T3, biotinylated recombinant cynomolgus …
Test: BLI (OctetRED), biotinylated cyno ARG2 on streptavidin, Fab as analyte
Description: (§2) An Octet Kinetics Buffer (PBS containing 0.01% BSA and 0.002% Tween20) is typically used as the diluent buffer for the analyte samples and as the flow buffer during the dissociation phase. The experimental data is recorded over time as shift in interference pattern (nm) over time, which is directly proportional to the optical thickness at the biosensor tip, which in turn is an approximate measure of the mass of analyte bound. The proprietary Octet Data Analysis software package can then be used to process data and fit binding models to the data sets. Returned association (kₐ, M⁻¹ s⁻¹) and dissociation (kd, s⁻¹) rate constants allow calculation of dissociation (KD, M) affinity constants.
(§3) Typically, an analyte titration range of 1.8 to 120 nM was used.

Point of comparison: B10, Kd 2.05 nM. Against it:
- B6 — 2.2-fold lower, 0.953 nM
- B7 — within 1.5-fold, 1.77 nM
- B8 — within 1.5-fold, 2.63 nM
- B9 — within 1.5-fold, 1.66 nM
- B11 — 1.6-fold lower, 1.27 nM
- B12 — within 1.5-fold, 1.67 nM

Point of comparison: B12, koff 0.000549 s⁻¹. Against it:
- B6 — 1.9-fold lower, 0.000296 s⁻¹
- B7 — within 1.5-fold, 0.000771 s⁻¹
- B8 — within 1.5-fold, 0.000724 s⁻¹
- B9 — 2.1-fold higher, 0.00117 s⁻¹
- B10 — within 1.5-fold, 0.000726 s⁻¹
- B11 — within 1.5-fold, 0.000782 s⁻¹

Point of comparison: B7, kon 437000 M⁻¹ s⁻¹. Against it:
- B6 — within 1.5-fold, 310000 M⁻¹ s⁻¹
- B8 — 1.6-fold lower, 275000 M⁻¹ s⁻¹
- B9 — 1.6-fold higher, 706000 M⁻¹ s⁻¹
- B10 — within 1.5-fold, 354000 M⁻¹ s⁻¹
- B11 — within 1.5-fold, 617000 M⁻¹ s⁻¹
- B12 — within 1.5-fold, 328000 M⁻¹ s⁻¹

Biological target: T1, biotinylated recombinant human trimeric …
Test: BLI (OctetRED), biotinylated ARG2 on streptavidin, Fab as analyte
Description: as §2, §3

Point of comparison: B10, Kd 2.69 nM. Against it:
- B6 — 2.1-fold lower, 1.3 nM
- B7 — within 1.5-fold, 2.53 nM
- B8 — 1.6-fold higher, 4.41 nM
- B9 — within 1.5-fold, 2.73 nM
- B11 — 1.7-fold lower, 1.62 nM
- B12 — within 1.5-fold, 2.05 nM

Point of comparison: B10, koff 0.000755 s⁻¹. Against it:
- B6 — 2.2-fold lower, 0.000351 s⁻¹
- B7 — within 1.5-fold, 0.000674 s⁻¹
- B8 — within 1.5-fold, 0.000871 s⁻¹
- B9 — within 1.5-fold, 0.00112 s⁻¹
- B11 — within 1.5-fold, 0.000665 s⁻¹
- B12 — 1.7-fold lower, 0.000449 s⁻¹

Point of comparison: B10, kon 280000 M⁻¹ s⁻¹. Against it:
- B6 — within 1.5-fold, 271000 M⁻¹ s⁻¹
- B7 — within 1.5-fold, 266000 M⁻¹ s⁻¹
- B8 — within 1.5-fold, 198000 M⁻¹ s⁻¹
- B9 — within 1.5-fold, 412000 M⁻¹ s⁻¹
- B11 — within 1.5-fold, 409000 M⁻¹ s⁻¹
- B12 — within 1.5-fold, 219000 M⁻¹ s⁻¹
